Source: patent publication US9827216B2, “Nutritional support to prevent and/or mitigate bone marrow toxicity from a cancerous tumor” (Nestec S.A., priority 2008, dated 2017)

Columns and labels:
[1] = system: red blood cell, white blood cell and immune cell populations; assay: Haematological evaluation and flow cytometric analysis, test diets with chemotherapy (Example 2); type: in vivo, mice
Method: The animals were distributed into 7 different group diets. There was a control group that received the diet AIN 93 for adult rodents (maintenance). Test diets were administered in doses appropriate to the animal model: (a) Ctrl diet were supplemented with 1% (w/w) L-arginine, (b) 25% of the protein was replaced by glutamine, (c) 1% (w/w) L-citrulline, (d) 1 g/Kg body weight with active hexose correlated compound, (e) 20 mg/day of RNA nucleotides and (f) 25 mg/day of lactoferrin. […] Control animals without chemotherapeutic treatment were run in parallel for all tested diets. Body weight was assessed every two days. Blood samples were obtained at day 2, 4 and 10 after the chemo-treatment and at sacrifice (14 or 28 days). An autopsy was performed and tumor mass was assessed.

immune cells = assay: Nutritional intervention on immune cells in tumor burdened animals with and without chemotherapy (FIG. 11); type: in vivo
Text: FIG. 11 illustrates a graph of the effect of nutritional intervention on immune cells in tumor burdened animals with and without chemotherapy in accordance with an embodiment of the present disclosure.

B1: lactoferrin: diet with 25 mg/day of lactoferrin (protein, UniProt P24627 20-708, looked up)
Lactotransferrin: APRKNVRWCTISQPEWFKCRRWQWRMKKLGAPSITCVRRAFALECIRAIAEKKADAVTLDGGMVFEAGRDPYKLRPVAAEIYGTKESPQTHYYAVAVVKKGSNFQLDQLQGRKSCHTGLGRSAGWIIPMGILRPYLSWTESLEPLQGAVAKFFSASCVPCIDRQAYPNLCQLCKGEGENQCACSSREPYFGYSGAFKCLQDGAGDVAFVKETTVFENLPEKADRDQYELLCLNNSRAPVDAFKECHLAQVPSHAVVARSVDGKEDLIWKLLSKAQEKFGKNKSRSFQLFGSPPGQRDLLFKDSALGFLRIPSKVDSALYLGSRYLTTLKNLRETAEEVKARYTRVVWCAVGPEEQKKCQQWSQQSGQNVTCATASTTDDCIVLVLKGEADALNLDGGYIYTAGKCGLVPVLAENRKSSKHSSLDCVLRPTEGYLAVAVVKKANEGLTWNSLKDKKSCHTAVDRTAGWNIPMGLIVNQTGSCAFDEFFSQSCAPGADPKSRLCALCAGDDQGLDKCVPNSKEKYYGYTGAFRCLAEDVGDVAFVKNDTVWENTNGESTADWAKNLNREDFRLLCLDGTRKPVTEAQSCHLAVAPNHAVVSRSDRAAHVKQVLLHQQALFGKNGKNCPDKFCLFKSETKNLLFNDNTECLAKLGGRPTYEEYLGTEYVTAIANLKKCSTSPLLEACAFLTR
Global lymphocyte population ([1]; following chemotherapy, supplemented diets): less depressed | leukocytic increase (white blood cell counts) ([1]; oxaliplatin treated animals, supplemented diet 25 mg/day): tended to be higher | toxicity (immune cells) (immune cells; chemotherapy treated group as compared to the control (FIG. 11)): less toxicity | immune cell population / concentration (immune cells; during the second phase (tumor-induced toxicity)): increase in their immune cell population
